Assay results taken from the supplement of paper PMC10567573.
± gives the standard deviation.

Assay: protein stability index of a GFP-peptide fusion (GPS, HEK-293T) (PSI 1-6); higher = more stable
[1] = treatment: DMSO, c terminus: a fixed tail appended
[2] = treatment: MLN4924 1 uM, 8 h, c terminus: a fixed tail appended
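Also: 24-mer peptide tiles fused after GFP, lentivirally expressed, FACS-sorted into six equal bins by GFP/DsRed ratio, decoded by Illumina sequencing, PSI is the read-weighted mean bin number.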

| Sequence | protein stability index [1] | protein stability index [2] | protein stability index (treatment: DMSO, c terminus: native) | protein stability index (treatment: MLN4924 1 uM, 8 h, c terminus: native) |
| --- | --- | --- | --- | --- |
| LTAFICFLVFILNAGLVWFFPWRE [MFSD9] | 2.23 ± 0.42 | 2.11 ± 0.51 |  |  |
| HTNCFELSIYVGCDKYPHESQLPE [CPXM2] | 2.54 ± 0.34 | 2.44 ± 0.051 |  |  |
| CQEWYARRHCPLPQATFWGLVTPR [SOAT2] | 2.32 ± 0.23 | 2.25 ± 0.54 |  |  |
| RLNGTAKGERRREPGGYDSSSTLM [DVL3] | 3.62 ± 0.13 | 4.01 ± 0.31 |  |  |
| LHVAARYGHELLINTLITSGADTA [ANKRD44] | 2.52 ± 0.28 | 2.44 ± 0.72 |  |  |
| MLRQLLLAALCLAGPPAPARACQL [CCDC3] | 3.47 ± 0.045 | 2.76 ± 1.1 |  |  |
| LALALKKCKPSLPAEAEGAAQELE [TMEM120A] | 4.39 ± 0.18 | 4.46 ± 0.19 |  |  |
| VQGGSEAWGPGTLAAAPEGLEDAG [TEX19] | 5.12 ± 0.36 | 5.41 ± 0.2 |  |  |
| AQNREPESVEQLESRIVEQENAIQ [SNX8] | 5.54 ± 0.063 | 5.52 ± 0.19 |  |  |
| HPYSTTFQESASTPETRAKFTQDN [TEKT4] | 4.54 ± 0.13 | 4.67 ± 0.31 |  |  |
| SILNAKAPALPPGGTDPHGYHQVP [FOXJ1] | 3.6 ± 0.2 | 3.66 ± 0.14 |  |  |
| PLPESRREIEELLAEAKYYLVQGL [KCTD10] | 2.56 ± 0.2 | 2.77 ± 0.4 |  |  |
| QENAIQTMELRNYFSLYCLHQETQ [SNX8] | 2.58 ± 0.31 | 2.52 ± 0.4 |  |  |
| LGGFSHWGRLTSYSGGGYYLDLPG [PKD2L1] | 2.47 ± 0.19 | 2.74 ± 0.25 |  |  |
| TDNSIKPQELLEWELVVLGKLKWN [CCND2] | 2.65 ± 0.25 | 2.81 ± 0.33 |  |  |
| ARQEGLTFFGTELAPVRQQELASL [PBXIP1] | 3.56 ± 0.22 | 3.69 ± 0.48 |  |  |
| LFEEILSNSRQLKWLSCGFMLEIV [FBXO33] | 3.02 ± 0.69 | 2.79 ± 0.57 |  |  |
| SAGDADPENGEIKPASKPAGSSHT [ELOA2] | 5.42 ± 0.42 | 5.47 ± 0.44 |  |  |
| SDLKDDDAVPPGMESLISAPLVKT [CDC25B] | 5.21 ± 0.28 | 5.17 ± 0.43 |  |  |
| QIMFDVEMHTSRDHSSQSEEEVVE [BNIP3L] | 5.33 ± 0.063 | 5.37 ± 0.22 |  |  |
| TCSICRRNFSRRSSLLRHQKLHL [ZNF75A] |  |  | 3.65 ± 0.23 | 4.06 ± 0.43 |
| TLIREKSFGACLREETPRMPSWAS [ELOA2] | 2.14 ± 0.13 | 2.67 ± 0.71 |  |  |
| TVASEAKIQLSDSEAKSHSSADDA [FAN1] | 5.46 ± 0.28 | 5.38 ± 0.27 |  |  |

| Sequence | protein stability index [1] | protein stability index [2] | protein stability index (treatment: DMSO, c terminus: native) | protein stability index (treatment: MLN4924 1 uM, 8 h, c terminus: native) |
| --- | --- | --- | --- | --- |
| MSAALFSLDGPARGAPWPAEPAPF [CEBPD] | 2.95 ± 0.14 | 3.21 ± 0.18 |  |  |
| IVITGDADIDHDQALAQAIKEAKE [EPB41L3] | 2.85 ± 0.58 | 3.45 ± 0.48 |  |  |
| HLSPLVVHRQLSHLYAEPQKSPWC [ESR2] | 2.51 ± 0.36 | 2.79 ± 0.36 |  |  |
| VRLMRQLLVINESIESIKWMIEEK [LURAP1L] | 2.75 ± 0.35 | 2.86 ± 0.45 |  |  |
| VHVISLHIWELSSIKNSLKVAAIS [PTGFR] | 2.86 ± 0.46 | 3.07 ± 0.32 |  |  |
| TVKHIDAALSEENTGKTYFFVANK [MMP1] | 3.28 ± 0.32 | 3.38 ± 0.18 |  |  |
| SVIKDHHTRSITSCCFDPDSQRVA [WDR88] | 3.35 ± 0.2 | 3.41 ± 0.38 |  |  |
| GASHVLALSTERELFAWGRGDSGR [NEK8] | 3.38 ± 0.31 | 3.42 ± 0.26 |  |  |
| DSSCSGQPIHLWQFLKELLLKPHS [SPDEF] | 2.47 ± 0.21 | 2.46 ± 0.16 |  |  |
| AENYLSGGGPGDGGGADTGTGGEE [FBXO33] | 5.42 ± 0.31 | 5.55 ± 0.23 |  |  |
| CQEYLARNARIVHLVEETRIHVLP [CPXM2] | 2.2 ± 0.28 | 2.49 ± 0.35 |  |  |
| LRGQVGGEINVEMDAAPGVDLSRI [KRT17] | 3.97 ± 0.15 | 3.92 ± 0.16 |  |  |
| SIPRHFALSGKYSREFFNRRGELR [SRPK2] | 2.74 ± 0.46 | 2.8 ± 0.46 |  |  |
| EKNNHRAKDLRAPPEQGKIFIARR [SOAT1] | 3.16 ± 0.33 | 3.27 ± 0.5 |  |  |
| GLPGKVFACLSVLFVTVTAVNLSV [KCNG1] | 3.36 ± 0.17 | 3.053 ± 0.022 |  |  |
| GCEDEYLVNPTCQVLVKDFTFEGF [ZER1] | 2.89 ± 0.47 | 2.85 ± 0.4 |  |  |
| QHAALGGTATRQNNWPPLPSFCPV [SCAMP3] | 3.33 ± 0.28 | 3.39 ± 0.37 |  |  |
| PFDQSGLGAEESLGLLDDYLEVAK [ATF4] | 4.28 ± 0.28 | 4.62 ± 0.24 |  |  |
| PKNPALEAFLAQFSQLEDKFPGQS [TOR1AIP2] | 3.43 ± 0.1 | 3.64 ± 0.15 |  |  |
| TPEELTILGETQEEEDEILPRKDY [CLCN6] | 5.51 ± 0.13 | 5.54 ± 0.21 |  |  |
| NCLGIRAFADTHSCRELLRIADKF [KLHL20] | 2.3 ± 0.36 | 2.2 ± 0.18 |  |  |
| EVGDPAPLGAGNLGPELIKESNAN [DPCD] | 5.31 ± 0.31 | 5.28 ± 0.1 |  |  |
| EDYSRDEDHIAHIIELLGSIPRHF [SRPK2] | 2.62 ± 0.13 | 2.85 ± 0.31 |  |  |

| Sequence | protein stability index [1] | protein stability index [2] | protein stability index (treatment: DMSO, c terminus: native) | protein stability index (treatment: MLN4924 1 uM, 8 h, c terminus: native) |
| --- | --- | --- | --- | --- |
| HDGSSYLNSVERYDPKTNQWSSDV [KLHL20] | 4.46 ± 0.25 | 4.27 ± 0.4 |  |  |
| GMLAPAAGPAFDSDPEISDVDEDE [PPFIA4] | 5.35 ± 0.73 | 5.54 ± 0.24 |  |  |
| DQDTLAPLPHPGAAPWPMAFPYQY [DVL3] | 3.15 ± 0.29 | 3.12 ± 0.25 |  |  |
| IQKLTQIETGENVTGMELEFKRLA [PTPRD] | 3.51 ± 0.08 | 3.55 ± 0.43 |  |  |
| AGGATAWGDLLGEDSLAALSSVPS [SNAP91] | 3.99 ± 0.25 | 3.96 ± 0.11 |  |  |
| ALQYAGDGSVLLIPRTMADQQARR [NFE2L1] | 3.11 ± 0.14 | 3.19 ± 0.63 |  |  |
| LNVELDPEIQKVRAQEREQIKALN [KRT71] | 4.74 ± 0.13 | 4.75 ± 0.11 |  |  |
| SPTSRPPWAVDPAFAERYAPDKTS [PDLIM7] | 4.63 ± 0.21 | 4.7 ± 0.31 |  |  |
| AWLPQAKVPFSQEIKDLILPKISD [PI4K2A] | 2.72 ± 0.059 | 2.78 ± 0.18 |  |  |
| MENNHTVAITILQDDHDHKVQELM [MTUS2] | 4.42 ± 0.26 | 4.34 ± 0.098 |  |  |
| IMNDLSNRVWSISQEPDPVQRLQA [TRIM14] | 3.16 ± 0.31 | 3.16 ± 0.17 |  |  |
| MEEVCGGEKPYLSPDILEEKHCEF [ATL3] | 5.15 ± 0.29 | 5.01 ± 0.14 |  |  |
| PEMYILKGGYKEFFPQHPNFCEPQ [CDC25B] | 2.6 ± 0.46 | 2.84 ± 0.36 |  |  |
| LVLAIPLLLILVSYVHILSAILQF [OR10K2] | 3.37 ± 0.14 | 3.17 ± 0.28 |  |  |
| TRPTQHELRLYKQQVKKLEKALKK [CEP70] | 3.23 ± 0.25 | 3.07 ± 0.29 |  |  |
| KSRRSRSESETSTMAAKKNRQSSD [C18orf25] | 5.47 ± 0.15 | 5.53 ± 0.25 |  |  |
| HESFFSLFSDPRSTRLTRIHLRED [ZER1] | 3.04 ± 0.26 | 3.14 ± 0.11 |  |  |
| MAHSKTRTNDGKITYPPGVKEISD [PDS5B] | 4.59 ± 0.17 | 4.61 ± 0.21 |  |  |
| LIISCRKLFYFKIWAFLDVSFVER [FBXO39] | 3.43 ± 0.47 | 2.9 ± 0.099 |  |  |
| STFYPPYHSPELTTPPGHGTLDNS [NEUROD6] | 4.27 ± 0.091 | 4.21 ± 0.22 |  |  |
| LQLLLGCKARMERDGYGMTPLLAA [FEM1A] | 2.38 ± 0.5 | 2.24 ± 0.29 |  |  |
| RFHRARWGLEEEDFQPREEAMLYH [P3H4] | 2.93 ± 0.11 | 2.9 ± 0.13 |  |  |
| VGSLSWLRKQLQPTHCKYEGPRKA | 2.87 ± 0.24 | 2.9 ± 0.21 |  |  |

| Sequence | protein stability index [1] | protein stability index [2] | protein stability index (treatment: DMSO, c terminus: native) | protein stability index (treatment: MLN4924 1 uM, 8 h, c terminus: native) |
| --- | --- | --- | --- | --- |
| QRSYFLRIFDIKDGKLLWEQELYN [WASL] | 2.21 ± 0.48 | 2.08 ± 0.4 |  |  |
| EAKALLKERQKKDNHNLIERRRRF [TFE3] | 4.21 ± 0.32 | 4.38 ± 0.2 |  |  |
| DWASNKVMFKIGDLGHVTRISSPQ [WEE1] | 2.53 ± 0.25 | 2.64 ± 0.41 |  |  |
| TQQELRKIREKEEWIKLDYHRRHN [IQUB] | 3.88 ± 0.29 | 3.82 ± 0.52 |  |  |
| KDGKLLAATLLLALLSCCLTVVSF [TNFSF13B] | 3.26 ± 0.39 | 3.35 ± 0.32 |  |  |
| ICELVMALDYLQNQRIIHRDMKPD [STK32A] | 2.62 ± 0.64 | 2.44 ± 0.5 |  |  |
| LISSGMSSHKQGHTSSEYDMLREM [TAF7L] | 3.75 ± 0.23 | 3.84 ± 0.19 |  |  |
| ISLALFVLPKPKVISCLEQGEEPW [ZNF75A] | 3.21 ± 0.49 | 2.9 ± 0.56 |  |  |
| FYHDHTKIIICSQNEEYLLTYINE [PLK2] | 2.57 ± 0.59 | 2.58 ± 0.54 |  |  |
| QAAFTQQGMEGIKVFLHERELWLK [TBX5] | 2.86 ± 0.37 | 2.92 ± 0.4 |  |  |
| ESKKNRVEINDLDPEVFKEMMRFI [SPOPL] | 1.55 ± 0.31 |  |  |  |
| KIIFRVGLVLLKHALGSPEKVKAC [TBC1D10A] | 2.77 ± 0.43 | 2.76 ± 0.19 |  |  |
| DAGEVSYLPRDFSTYRPLPDPSVW [MYORG] | 3.29 ± 0.17 | 3.27 ± 0.38 |  |  |
| GYGGSRDSYSSSRSDLYSSGRDRV [RBMX] | 3.828 ± 0.029 | 3.99 ± 0.37 |  |  |
| PFWEVLVRSTETVERDNMEEDNVE [HDAC6] | 5.27 ± 0.086 | 5.27 ± 0.13 |  |  |
| KVLILRNHGLVSVGESVEEAFYYI [ADD1] | 2.63 ± 0.53 | 2.72 ± 0.67 |  |  |
| NVAATGISQYEDDLPPPPADPVLD [APBB1IP] | 5.36 ± 0.18 | 5.45 ± 0.19 |  |  |
| VGKVEELIESEAPPKASEQETAKE [C18orf25] | 5.53 ± 0.28 | 5.6 ± 0.27 |  |  |
| VVLDRHGVYGLQRNLLVENIIDIY [TRIM55] | 2.44 ± 0.8 | 2.81 ± 0.099 |  |  |
| QILEGELFDFDLEVKPVLEVLVGK [RSPH3] | 2.13 ± 0.58 | 2.37 ± 0.67 |  |  |
